Data as given in patent US20240190958A1 (TUBULIS, published 2024).

T1: human NaPi2b on NaPi2b-positive cell lines OVCAR-3 and HCC-78 (human, UniProt O95436 1-690)
T1 sequence: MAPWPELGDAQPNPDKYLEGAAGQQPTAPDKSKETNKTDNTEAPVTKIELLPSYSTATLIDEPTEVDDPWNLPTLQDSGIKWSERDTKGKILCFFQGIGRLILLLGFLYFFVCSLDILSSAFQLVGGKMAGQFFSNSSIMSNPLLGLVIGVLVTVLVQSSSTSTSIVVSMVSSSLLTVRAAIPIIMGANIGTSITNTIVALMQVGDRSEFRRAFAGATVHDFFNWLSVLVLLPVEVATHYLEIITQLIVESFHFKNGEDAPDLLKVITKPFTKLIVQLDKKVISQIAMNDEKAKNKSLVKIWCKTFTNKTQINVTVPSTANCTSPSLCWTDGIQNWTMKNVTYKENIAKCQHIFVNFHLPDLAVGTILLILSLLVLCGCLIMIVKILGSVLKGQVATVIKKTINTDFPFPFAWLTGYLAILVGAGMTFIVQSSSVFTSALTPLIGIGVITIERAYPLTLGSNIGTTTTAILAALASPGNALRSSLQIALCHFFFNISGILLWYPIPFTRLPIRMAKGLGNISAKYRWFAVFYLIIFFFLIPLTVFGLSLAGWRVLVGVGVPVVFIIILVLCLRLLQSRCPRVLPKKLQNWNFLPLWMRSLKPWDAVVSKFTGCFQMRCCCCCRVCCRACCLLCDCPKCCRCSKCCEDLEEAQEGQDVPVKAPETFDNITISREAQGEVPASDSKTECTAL

T2: recombinant human FcγRIIa/CD32 H131 (Lumit binding immunoassay) (human, UniProt P12318 34-217, limits assumed)
T2 construct: Kit reagent (Promega), used as an FcγR-SmBiT fusion; also called FcγRIIa/CD32 R131/H131 polymorphism
T2 sequence (looked up): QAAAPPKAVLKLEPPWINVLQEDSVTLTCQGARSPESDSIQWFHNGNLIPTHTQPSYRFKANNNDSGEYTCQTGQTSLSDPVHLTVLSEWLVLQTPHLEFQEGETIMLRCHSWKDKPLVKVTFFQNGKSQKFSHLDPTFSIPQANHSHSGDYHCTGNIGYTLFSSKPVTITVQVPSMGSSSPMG


What was measured:
[1] = biological target: T1, human NaPi2b on NaPi2b-positive cell …; assay: cell-based or functional assay
[2] = biological target: T2, recombinant human FcγRIIa/CD32 H131 …; assay: Lumit FcγRIIa (CD32) (H131) Binding Immunoassay (Promega), competition with Tracer-LgBiT for FcγR-SmBiT, luminescence, n=1; left panel
Description: Luminescence was measured on a microplate reader Infinite M200 Pro (Tecan).
FcγR interaction studies were performed using the Lumit™ FcγR Binding Immunoassays (FcγRn, FcγRI, FcγRIIa/CD32 R131/H131 polymorphism, FcγRIIIa/CD16 V158/F158 polymorphism; Promega) based on a competition principle and luciferase detection according to the manufacturer's instructions. […] Luminescence is measured on a microplate reader Infinite M200 Pro (Tecan)._Graphs show n=1.

Binder | cytotoxicity (resazurin assay) on HCC-78, fold lower IC50 against the anti-Napi2b comparison ADC [1] [fold] | binding result [2]
AV25-P5(PEG24)-VC-PAB-Exatecan DAR8 ADC (antibody, human IgG1, kappa, L234A L235A, P5(PEG24)-VC-PAB-Exatecan linker-payload on the interchain cysteine residue (light chain adduct 1; DAR8 in total); P5(PEG24)-VC-PAB-Exatecan linker-payload on interchain cysteine residues (heavy chain adducts up to 3; DAR8 in total), also called TUB-040) heavy: not shown light: DIQMTQSPSSLSASVGDRVTITCSASQDIGNFLNWYQQKPGKTVKVLIYYASSLYSGVPSRFSGSGSGTDYTLTISSLQPEDFATYYCQQYSKLPLTFGQGTKLELKRTVAAPSVFIFPPSDEQLKSGTASVVCLLNNFYPREAKVQWKVDNALQSGNSQESVTEQDSKDSTYSLSSTLTLSKADYEKHKVYACEVTHQGLSSPVTKSFNRGEC | 15.5 | no binding (tested: 250 µg/ml)
AV25 mAb (LALA-silenced, AV25 HC-LALA) (antibody, human IgG1, kappa, L234A L235A, IgG1 kappa; also called unmodified AV25 mAb) heavy: not shown light: DIQMTQSPSSLSASVGDRVTITCSASQDIGNFLNWYQQKPGKTVKVLIYYASSLYSGVPSRFSGSGSGTDYTLTISSLQPEDFATYYCQQYSKLPLTFGQGTKLELKRTVAAPSVFIFPPSDEQLKSGTASVVCLLNNFYPREAKVQWKVDNALQSGNSQESVTEQDSKDSTYSLSSTLTLSKADYEKHKVYACEVTHQGLSSPVTKSFNRGEC | – | no binding (tested: 250 µg/ml)
